The target in the assay is T1, human NT5E expressed on MDA-MB-231 cells (human) (UniProt P21589).
T1 sequence (looked up): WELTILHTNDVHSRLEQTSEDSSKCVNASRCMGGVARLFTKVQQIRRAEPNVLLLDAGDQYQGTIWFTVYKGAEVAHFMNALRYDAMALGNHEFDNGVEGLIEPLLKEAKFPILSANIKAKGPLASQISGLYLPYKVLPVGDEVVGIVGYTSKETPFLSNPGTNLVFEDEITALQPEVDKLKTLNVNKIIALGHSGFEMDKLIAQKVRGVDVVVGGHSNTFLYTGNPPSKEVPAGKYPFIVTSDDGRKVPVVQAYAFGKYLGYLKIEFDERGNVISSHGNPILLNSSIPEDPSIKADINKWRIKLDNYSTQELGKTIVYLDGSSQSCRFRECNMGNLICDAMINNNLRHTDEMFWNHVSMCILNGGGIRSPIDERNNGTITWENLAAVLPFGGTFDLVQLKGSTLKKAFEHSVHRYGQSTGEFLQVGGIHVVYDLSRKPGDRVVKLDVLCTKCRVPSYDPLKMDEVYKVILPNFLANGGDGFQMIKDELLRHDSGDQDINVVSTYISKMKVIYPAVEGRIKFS
The experiment in a line: cell-based or functional assay.

BMS986179 IgG (antibody) came in with an IC50 of inhibition of NT5E on MDA-MB-231 cells, ATP of 1.1 nM and an IC50 of inhibition of NT5E on MDA-MB-231 cells, no ATP of 0.6 nM.

Values taken from patent publication US20260022186A1.
